# Assay results from patent US7879859B2, “Diagnosis and treatment of type 2 diabetes and other disorders” (Merck Sharp & Dohme Corp., priority 2005, dated 2011).
# “And” between values parts separate entries of the source, which are not always exact repeats. Equal entries are not always repeated. d = 2'-deoxy (DNA); r = 2'-OH (RNA)
# Legend:
# isolated mouse islets = assay: Glucose-stimulated insulin secretion (GSIS) in isolated mouse islets; format: cell-based; conditions: 10 nM Octreotide, FIG. 1
# Method: Pancreatic islets of Langerhans were isolated from the pancreas of normal C57BL/6J mice (Jackson Laboratory, Maine) by collagenase digestion and discontinuous Ficoll gradient separation, a modification of the original method of Lacy and Kostianovsky (Lacy et al., Diabetes 16:35-39, 1967). The islets were cultured overnight in RPMI 1640 medium (11 mM glucose) before GSIS assay. To measure GSIS, islets were first preincubated for 30 minutes in the Krebs-Ringer bicarbonate (KRB) buffer with 2 mM glucose (in petri dishes). The KRB medium contains 143.5 mM Na^+, 5.8 mM K^+, 2.5 mM Ca^2+, 1.2 mM Mg^2+, 124.1 mM Cl^−, 1.2 mM PO4^3−, 1.2 mM […], 25 mM CO3^2−, 2 mg/ml bovine serum albumin (pH 7.4). The islets were then transferred to a 96-well plate (one islet/well) and incubated at 37° C. for 60 minutes in 200 μl of KRB buffer with 2 or 16 mM glucose, and other agents to be tested such as octreotide and a SST3 antagonist. (Zhou et al., J. Biol. Chem. 278:51316-51323, 2003.) Insulin was measured in aliquots of the incubation buffer by ELISA with a commercial kit (ALPCO Diagnostics, Windham, N.H.).
# sst3 mRNA = assay: sst3 knockdown by Taqman real-time PCR; format: cell-based, rat; conditions: 48 hours after siRNA treatment; INS-1 832/13 cells
# Method: The degree of gene knockdown by the siRNA oligos was quantified by Taqman real-time PCR also at 48 hours after electroporation. The method consistently obtained >70% knockdown of the target genes mRNA. We used PDE3b (phosphodiesterase 3B) and GCK (glucokinase) as two positive controls. As shown in Example 5, Table 6 (infra), compared to control-shocked INS-1 cells (using random sequence siRNA oligos), knocking down PDE3b increased GSIS by 1.5 to 3 fold, consistent with its role in hydrolyzing cAMP, a key positive mediator of GSIS.
# The degree of sst3 knockdown was also examined 48 hours after siRNA treatment using Taqman real-time PCR. The rat sst3 specific probes were designed using Primer Express Software (Applied Biosystem) based on SEQ ID NO: 7 (Forward Primer: […] (SEQ ID NO: 15); Reverse Primer: […] (SEQ ID NO: 16); Probe: […] (SEQ ID NO: 17)). We observed about 55-75% reduction of sst3 mRNA in siRNA-treated cells.
# INS-1 (832/13) cells = assay: GSIS assay after siRNA mediated gene knockdown; format: cell-based, rat; conditions: compared to random sequence siRNA, 48 hours after electroporation
# Method: Three 21-mer siRNA oligos were designed against each candidate gene and used as a pool at the final concentration of 20 uM. The siRNA oligos were delivered to the cells by Nucleofector Device (Amaxa, Gaithersburg, Md.). The INS-1 (832/13) cells were trypsinized, centrifuged, and resuspended in 100 ul Nucleofector solution V (2.25×10^6 cells per reaction). Seven and a half microliters of pooled siRNA were then added to the cell suspension. The cells were electroporated with Amaxa Nucleofector Device program T21. After electroporation, the cells were transferred and split into 9 wells in 96-well plate with 200 ul of regular culture medium (RPMI 1640 with 10% FCS and 11 mM glucose).
# GSIS assays were performed after 48 hours. Prior to the assay, cells were washed once with glucose-free Krebs-Ringer Bicarbonate (KRB) medium and cells were incubated with the KRB medium for another 2 hours. The medium were replaced with fresh KRB supplemented with 2, 8, and 16 mM glucose and the cells were incubated for another 2 hours. Supernatants were taken out at the end of incubation for insulin measurement by Ultrasensitive Rat Insulin ELISA kit (ALPCO, Salem, N.H.).
# GSIS assays were performed 48 hours after electroporation. The ratios of insulin concentration measured between 8 mM and 2 mM (G8/G2) and 16 mM and 2 mM (G16/G2) glucose treatments are functional readouts for GSIS. […]
Molecule,Effect on GSIS (isolated mouse islets),Reduction of sst3 mRNA (sst3 mRNA),"Normalized fold of stimulation of GSIS, G8/G2 (INS-1 (832/13) cells; insulin ratio 8 mM/2 mM glucose)","Normalized fold of stimulation of GSIS, G16/G2 (INS-1 (832/13) cells; insulin ratio 16 mM/2 mM glucose)"
C[C@@H](O)[C@@H]1NC(=O)[C@H](CCCCN)NC(=O)[C@@H](Cc2c[nH]c3ccccc23)NC(=O)[C@H](Cc2ccccc2)NC(=O)[C@@H](NC(=O)[C@H](N)Cc2ccccc2)CSSC[C@@H](C(=O)N[C@H](CO)[C@@H](C)O)NC1=O [Octreotide],significantly suppressed,–,–,–
"si-SST3: pool of three pairs of siRNA oligos against rat sst3 (SEQ ID NO: 9-14) (nucleic acid, sugars from the 5' end r19 d2, backbone not given here) chain 1: CCUUUCGGCUCUCUCAUGUTT chain 2: GGGUUUGCUGGGCAAUUCATT chain 3: CUGACGAACUCUUCAUGCUTT chain 4: ACAUGAGAGAGCCGAAAGGTT chain 5: UGAAUUGCCCAGCAAACCCTT chain 6: AGCAUGAAGAGUUCGUCAGTT",–,55-75%,2.9 and 3 and 2.8,4.4 and 2.9 and 2.7 and 4.3
